Experimental data taken from patent publication US8133482B2, “Activatable photodynamic therapy agents” (The Trustees of the University of Pennsylvania, priority 2003, dated 2012).
The star is where a group is joined. Mu = morpholinocarbonyl cap, O=C(N1CCOCC1)*; Dox = doxorubicin

Tests used:
[1] = photophysical properties of pyropheophorbide acid (1O2 yield); type: physicochemical
PSA = PSA (Homo sapiens, UniProt P07288); conditions: incubation with enzymatically active PSA, HPLC detection; cited from earlier work
Sequence of PSA (P07288 25-261): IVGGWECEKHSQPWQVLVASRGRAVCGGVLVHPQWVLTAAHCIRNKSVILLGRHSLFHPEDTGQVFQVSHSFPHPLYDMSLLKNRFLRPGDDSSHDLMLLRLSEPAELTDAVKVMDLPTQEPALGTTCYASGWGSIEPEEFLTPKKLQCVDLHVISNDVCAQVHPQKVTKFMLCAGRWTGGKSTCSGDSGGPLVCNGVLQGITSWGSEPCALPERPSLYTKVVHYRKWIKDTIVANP

Molecule	1O2 yield [1]	hydrolysis by PSA (PSA)
C=Cc1c(C)c2cc3nc(c4c5[nH]c(cc6nc(cc1[nH]2)C(C)=C6CC)c(C)c5C(=O)C4)[C@@H](CCC(=O)O)[C@@H]3C [Pyropheophorbide acid, pyropheophorbide acid]	45%	–
Ac-HSSKLQ(SEQ ID NO:13)-Dox (Ac-HSSKLQ-Dox)	–	unable to hydrolyze
Mu-HS SKLQ(SEQ ID NO:13)-Leu-Dox (Mu-HSSKLQL-Dox)	–	resulted in production of Leu-Dox
